Assay results from patent US20140087995A1 (published 2014).
Like-named read-outs stand apart in the source and are kept apart here. Numbered stars: 1 amine (or outer) side, 2 acyl side, 3 side chain; on linkers, the order of the positions; unused ones are H or OH. Bridge positions count the residues as written; N and C are the ends. Side chains are listed from the residue outwards. Ends that are not written are not given here. * marks the point of attachment. C20 diacid = O=C(O)CCCCCCCCCCCCCCCCCCC(=O)*; γGlu = O=C(O)[C@H](CCC(=O)[*:2])N[*:1]

Experiments:
[1] = molecular target: T1, human amylin receptor (amylin 3(a) receptor: human calcitonin receptor co-expressed with RAMP-3) (human, UniProt P30988 25-474; O60896 24-148, limits assumed); experiment: SPA competition binding on membranes of Amylin 3(a)/CRE-luc BHK cells, displacement of 125I-rat amylin (Assay V)
T1 construct: whole, on cells; Functional EC50: the whole cells (Assay II a); also called hAmylin-R; hAmylinR
T1 sequence (looked up) 1: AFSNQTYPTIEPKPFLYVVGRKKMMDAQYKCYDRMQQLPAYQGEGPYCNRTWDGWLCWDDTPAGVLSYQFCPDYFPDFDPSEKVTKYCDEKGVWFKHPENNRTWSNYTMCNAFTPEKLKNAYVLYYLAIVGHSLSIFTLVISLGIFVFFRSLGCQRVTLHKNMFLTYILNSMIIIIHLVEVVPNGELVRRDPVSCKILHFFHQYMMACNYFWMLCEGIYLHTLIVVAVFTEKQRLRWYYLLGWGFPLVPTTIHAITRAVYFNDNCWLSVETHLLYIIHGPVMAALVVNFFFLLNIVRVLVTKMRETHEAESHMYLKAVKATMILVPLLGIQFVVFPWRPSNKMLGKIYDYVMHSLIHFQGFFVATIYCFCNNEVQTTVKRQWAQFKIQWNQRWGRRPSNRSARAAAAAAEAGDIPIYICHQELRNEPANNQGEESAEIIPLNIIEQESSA
T1 sequence (looked up) 2: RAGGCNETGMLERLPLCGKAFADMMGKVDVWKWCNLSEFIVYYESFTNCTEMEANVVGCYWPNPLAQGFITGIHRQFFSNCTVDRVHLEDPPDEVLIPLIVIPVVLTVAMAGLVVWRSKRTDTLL
Procedure: (§1) The binding assay was performed using scintillation proximity assay (SPA) beads (RPNQ0001) from PerkinElmer and cell membranes from the Amylin 3(a)/CRE-luc cells (as described in Assay (II)) were used. Membranes were prepared in the following way; the cells were rinsed with PBS and incubated with Versene for approximately 5 min before harvesting. The cells were flushed with PBS and the cell-suspension was centrifuged for 5 min at 1000 rpm. Cells were homogenized (ultrathurrax) in a buffer containing 20 mM Na-HEPES and 10 mM EDTA (pH 7.4) and centrifuged at 20.000 rpm for 15 min. The resulting pellet was resuspended, homogenized and centrifuged (20.000 rpm, 15 min) in a buffer containing 20 mM Na-HEPES and 0.1 mM EDTA (pH 7.4, buffer 2). The resulting pellet was resuspended in buffer 2 and protein concentration was measured (BCA protein Assay, Pierce). The homogenate was kept cold during the whole procedure. The membranes were kept at −80° C. until use. The assay was performed in a 384 well Optiplate (PerkinElmer) in a total volume of 40 ul. Membranes were mixed with SPA beads. Final concentration of membranes 35 ng/μL final and SPA beads was 0.05 mg/well. […] Samples were analyzed on TopCounter™ (Packard). The IC₅₀ was calculated using (one site binding competition analysis) GraphPad Prism5 as a measure of receptor affinity.

[2] = molecular target: T1, human amylin receptor (amylin 3(a) …); experiment: cell-based or functional assay
[3] = molecular target: T2, human calcitonin receptor (human, UniProt P30988 25-474); experiment: cell-based or functional assay
T2 sequence (looked up): T1 sequence (looked up) 1

[4] = molecular target: T3, human amylin 3(a) receptor (human calcitonin receptor co-expressed with RAMP-3) (human, UniProt P30988 25-474; O60896 24-148, limits assumed); experiment: SPA competition vs 125I-rat amylin, membranes of BHK Amylin 3(a)/CRE-luc cells (Assay V)
T3 construct: whole, on cells; Whole BHK amylin 3(a)-receptor/CRE-luc cells in the functional assay (Assay II a); also called hAmylin-R; hAmylinR
T3 sequence (looked up) 1: T1 sequence (looked up) 1
T3 sequence (looked up) 2: T1 sequence (looked up) 2
Procedure: as §1

[5] = molecular target: T3, human amylin 3(a) receptor (human …); experiment: cell-based or functional assay
[6] = molecular target: T4, human calcitonin receptor (human, UniProt P30988 25-474); experiment: cell-based or functional assay; remark: listed apart in the source
T4 sequence (looked up): T1 sequence (looked up) 1

[7] = molecular target: T5, human amylin receptor (amylin 3(a) receptor: human calcitonin receptor co-expressed with RAMP-3) (human, UniProt P30988 25-474; O60896 24-148, limits assumed); experiment: cell-based or functional assay; remark: listed apart in the source
T5 sequence (looked up) 1: T1 sequence (looked up) 1
T5 sequence (looked up) 2: T1 sequence (looked up) 2

[8] = molecular target: T5, human amylin receptor (amylin 3(a) …); experiment: SPA competition against 125I-rat amylin, membranes of Amylin 3(a)/CRE-luc BHK cells (Assay V)
Procedure: as §1

[9] = molecular target: T6, human amylin receptor (amylin 3(a) receptor: human calcitonin receptor with RAMP-3) (human, UniProt P30988 25-474; O60896 24-148, limits assumed); experiment: SPA competition binding on membranes of BHK cells with human calcitonin receptor + RAMP-3; displacement of 125I-rat amylin (Assay V)
T6 construct: whole, on cells; Whole cells in the luciferase assay (Assay II a); also called hAmylin-R; hAmylinR
T6 sequence (looked up) 1: T1 sequence (looked up) 1
T6 sequence (looked up) 2: T1 sequence (looked up) 2
Method in brief: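 Cell membranes were prepared by homogenisation in Na-HEPES/EDTA buffer, pH 7.4, and stored at −80° C. They were then coupled to SPA beads at 35 ng/μL final and exposed to compounds in assay buffer containing CaCl2, MgCl₂, OA and Tween20. After 120 min at 25° C, plates were counted and IC₅₀ derived.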

[10] = molecular target: T7, human calcitonin receptor (human, UniProt P30988 25-474); experiment: cell-based or functional assay; remark: listed apart in the source
T7 sequence (looked up): T1 sequence (looked up) 1

[11] = molecular target: T6, human amylin receptor (amylin 3(a) …); experiment: cell-based or functional assay

B1: N^ε1-[(4S)-4-carboxy-4-(19-carboxynonadecanoylamino)butanoyl]-[His14,Arg17,Pro21,Pro27,Pro34]-h-amylin (peptide)
peptide: K([γGlu-C20 diacid])CNTATCATQRLAHFLRHSSPNFGAIPSSTNVGPNTY-NH2
modifications: disulfide 2-7; N-terminus assumed
SMILES: CC[C@H](C)[C@H](NC(=O)[C@H](C)NC(=O)CNC(=O)[C@H](Cc1ccccc1)NC(=O)[C@H](CC(N)=O)NC(=O)[C@@H]1CCCN1C(=O)[C@H](CO)NC(=O)[C@H](CO)NC(=O)[C@H](Cc1c[nH]cn1)NC(=O)[C@H](CCCNC(=N)N)NC(=O)[C@H](CC(C)C)NC(=O)[C@H](Cc1ccccc1)NC(=O)[C@H](Cc1c[nH]cn1)NC(=O)[C@H](C)NC(=O)[C@H](CC(C)C)NC(=O)[C@H](CCCNC(=N)N)NC(=O)[C@H](CCC(N)=O)NC(=O)[C@@H](NC(=O)[C@H](C)NC(=O)[C@@H]1CSSC[C@H](NC(=O)[C@@H](N)CCCCNC(=O)CC[C@H](NC(=O)CCCCCCCCCCCCCCCCCCC(=O)O)C(=O)O)C(=O)N[C@@H](CC(N)=O)C(=O)N[C@@H]([C@@H](C)O)C(=O)N[C@@H](C)C(=O)N[C@@H]([C@@H](C)O)C(=O)N1)[C@@H](C)O)C(=O)N1CCC[C@H]1C(=O)N[C@@H](CO)C(=O)N[C@@H](CO)C(=O)N[C@H](C(=O)N[C@@H](CC(N)=O)C(=O)N[C@H](C(=O)NCC(=O)N1CCC[C@H]1C(=O)N[C@@H](CC(N)=O)C(=O)N[C@H](C(=O)N[C@@H](Cc1ccc(O)cc1)C(N)=O)[C@@H](C)O)C(C)C)[C@@H](C)O
notes: also called compound 67
- IC50 [1]: 0.09 nM
- hAmylin-R funct. EC50 [2]: 0.069 nM
- hCTR funct. EC50 [3]: 0.354 nM

B2: N^α1-[2-[2-[2-[[2-[2-[2-[[(4S)-4-carboxy-4-(19-carboxynonadecanoylamino)butanoyl]amino]ethoxy]ethoxy]acetyl]amino]ethoxy]ethoxy]acetyl]-[Arg17,Pro21,Pro27]-h-am … (peptide)
peptide: KCNTATCATQRLANFLRHSSPNFGAIPSSTNVGSNTY
modifications: alpha-amino group of N-terminal Lys1 acylated with C20 diacid via linker gGlu-2xOEG; disulfide bridge Cys2-Cys7 and C-terminal amide as in human amylin
notes: also called compound 24
- IC50 [4]: 1.14 nM
- Ratio hCT/hAmylin funct. (hCTR EC50 over hAmylin-R EC50) [5]: 23.1
- hAmylin-R funct. EC50 (pM) [5]: 433 pM

B3: N^ε1-[(4S)-4-carboxy-4-(19-carboxynonadecanoylamino)butanoyl]-[His14,Arg17,Pro21,Pro27,Pro34]-h-amylin (peptide)
peptide: K([γGlu-C20 diacid])CNTATCATQRLAHFLRHSSPNFGAIPSSTNVGPNTY-NH2
modifications: disulfide 2-7; N-terminus assumed
SMILES: CC[C@H](C)[C@H](NC(=O)[C@H](C)NC(=O)CNC(=O)[C@H](Cc1ccccc1)NC(=O)[C@H](CC(N)=O)NC(=O)[C@@H]1CCCN1C(=O)[C@H](CO)NC(=O)[C@H](CO)NC(=O)[C@H](Cc1c[nH]cn1)NC(=O)[C@H](CCCNC(=N)N)NC(=O)[C@H](CC(C)C)NC(=O)[C@H](Cc1ccccc1)NC(=O)[C@H](Cc1c[nH]cn1)NC(=O)[C@H](C)NC(=O)[C@H](CC(C)C)NC(=O)[C@H](CCCNC(=N)N)NC(=O)[C@H](CCC(N)=O)NC(=O)[C@@H](NC(=O)[C@H](C)NC(=O)[C@@H]1CSSC[C@H](NC(=O)[C@@H](N)CCCCNC(=O)CC[C@H](NC(=O)CCCCCCCCCCCCCCCCCCC(=O)O)C(=O)O)C(=O)N[C@@H](CC(N)=O)C(=O)N[C@@H]([C@@H](C)O)C(=O)N[C@@H](C)C(=O)N[C@@H]([C@@H](C)O)C(=O)N1)[C@@H](C)O)C(=O)N1CCC[C@H]1C(=O)N[C@@H](CO)C(=O)N[C@@H](CO)C(=O)N[C@H](C(=O)N[C@@H](CC(N)=O)C(=O)N[C@H](C(=O)NCC(=O)N1CCC[C@H]1C(=O)N[C@@H](CC(N)=O)C(=O)N[C@H](C(=O)N[C@@H](Cc1ccc(O)cc1)C(N)=O)[C@@H](C)O)C(C)C)[C@@H](C)O
notes: also called compound 67
- Ratio hCT/hAmylin funct. (hCTR EC50 against hAmylin-R EC50) [6]: 5.2
- hCTR funct. EC50 [6]: 0.354 nM
- hAmylin-R funct. EC50 [7]: 0.069 nM
- IC50 [8]: 0.09 nM

B4: N^α1-[(4S)-4-carboxy-4-(19-carboxynonadecanoylamino)butanoyl]-[Glu14,Arg17,Pro21,Pro27,Arg35]-h-amylin (peptide)
peptide: {C20 diacid-γGlu}-KCNTATCATQRLAEFLRHSSPNFGAIPSSTNVGSRTY-NH2
modifications: disulfide 2-7
SMILES: CC[C@H](C)[C@H](NC(=O)[C@H](C)NC(=O)CNC(=O)[C@H](Cc1ccccc1)NC(=O)[C@H](CC(N)=O)NC(=O)[C@@H]1CCCN1C(=O)[C@H](CO)NC(=O)[C@H](CO)NC(=O)[C@H](Cc1c[nH]cn1)NC(=O)[C@H](CCCNC(=N)N)NC(=O)[C@H](CC(C)C)NC(=O)[C@H](Cc1ccccc1)NC(=O)[C@H](CCC(=O)O)NC(=O)[C@H](C)NC(=O)[C@H](CC(C)C)NC(=O)[C@H](CCCNC(=N)N)NC(=O)[C@H](CCC(N)=O)NC(=O)[C@@H](NC(=O)[C@H](C)NC(=O)[C@@H]1CSSC[C@H](NC(=O)[C@H](CCCCN)NC(=O)CC[C@H](NC(=O)CCCCCCCCCCCCCCCCCCC(=O)O)C(=O)O)C(=O)N[C@@H](CC(N)=O)C(=O)N[C@@H]([C@@H](C)O)C(=O)N[C@@H](C)C(=O)N[C@@H]([C@@H](C)O)C(=O)N1)[C@@H](C)O)C(=O)N1CCC[C@H]1C(=O)N[C@@H](CO)C(=O)N[C@@H](CO)C(=O)N[C@H](C(=O)N[C@@H](CC(N)=O)C(=O)N[C@H](C(=O)NCC(=O)N[C@@H](CO)C(=O)N[C@@H](CCCNC(=N)N)C(=O)N[C@H](C(=O)N[C@@H](Cc1ccc(O)cc1)C(N)=O)[C@@H](C)O)C(C)C)[C@@H](C)O
notes: also called compound 16
- IC50 [9]: 0.894 nM
- Ratio hCT/hAmylin funct. [10]: 6.1 ratio
- hCTR funct. EC50 (pM) [10]: 2220 pM
- hAmylin-R funct. EC50 (pM) [11]: 363 pM
